Data taken from PMC3673036 (Bioscience Reports, 2013).
Numbering of substitutions follows the chain as printed. In names and notes the source's numbering stands. Each block holds one molecule with its values, some of them ahead of it.

Key:
EphB2 [1] = biological target: T1, EphB2 (Homo sapiens, UniProt P29323); experiment: ADP-Glo luminescent kinase assay; assay type: biochemical; conditions: ATP and poly-(Glu:Tyr) […] at Km of each kinase; MgCl2, Hepes pH […]°C, […] min, […] DMSO; unreliable: below assay tight binding limit of about […]
T1 construct: kinase domain 604-898 without juxtamembrane region; N-terminal His6-TEV tag cleaved (GSS left); E. coli BL21 Star (DE3), PTP1B co-expressed; unphosphorylated; synthetic codon-optimized gene
T1 sequence (P29323 604-898): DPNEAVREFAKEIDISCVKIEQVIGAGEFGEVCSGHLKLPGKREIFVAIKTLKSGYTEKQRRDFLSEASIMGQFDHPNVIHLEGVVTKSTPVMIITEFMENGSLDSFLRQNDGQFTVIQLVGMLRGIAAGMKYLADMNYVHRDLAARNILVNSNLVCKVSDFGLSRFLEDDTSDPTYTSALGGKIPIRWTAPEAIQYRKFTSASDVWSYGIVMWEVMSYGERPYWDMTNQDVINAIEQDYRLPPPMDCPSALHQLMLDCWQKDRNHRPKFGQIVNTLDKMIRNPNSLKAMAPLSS
From the text: ADP-Glo luminescent kinase assay on EphB2

EphB1 = biological target: T2, EphB1 (Homo sapiens, UniProt P54762); experiment: ADP-Glo luminescent kinase assay; assay type: biochemical; conditions: ATP and poly-(Glu:Tyr) […] at Km of each kinase; MgCl2, Hepes pH […]°C, […] min, […] DMSO; unreliable: below assay tight binding limit of about […]
T2 construct: kinase domain 602-896 without juxtamembrane region; N-terminal His6-TEV tag cleaved (GSS left); E. coli BL21 Star (DE3), PTP1B co-expressed; unphosphorylated; synthetic codon-optimized gene
T2 sequence (P54762 602-896): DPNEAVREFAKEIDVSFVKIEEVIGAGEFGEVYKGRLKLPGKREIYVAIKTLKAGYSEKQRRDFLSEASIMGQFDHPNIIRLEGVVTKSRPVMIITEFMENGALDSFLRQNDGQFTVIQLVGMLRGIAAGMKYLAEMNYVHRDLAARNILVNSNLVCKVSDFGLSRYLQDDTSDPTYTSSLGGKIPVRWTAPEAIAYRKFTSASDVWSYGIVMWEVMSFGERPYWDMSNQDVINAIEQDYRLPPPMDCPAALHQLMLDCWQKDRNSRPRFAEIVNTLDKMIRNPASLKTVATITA
From the text: ADP-Glo luminescent kinase assay on EphB1

EphB2 [2] = biological target: T1, EphB2; experiment: ADP-Glo luminescent kinase assay, Michaelis-Menten fit; assay type: biochemical; conditions: […] poly-(Glu:Tyr) […], MgCl2, Hepes pH […]°C; read-out: Km ATP
From the text: ADP-Glo luminescent kinase assay, Michaelis-Menten fit on EphB2

[3] = substrate: Nc1ncnc2c1ncn2[C@@H]1O[C@H](COP(=O)(O)OP(=O)(O)OP(=O)(O)O)[C@@H](O)[C@H]1O; experiment: as above; assay type: biochemical, Homo sapiens; conditions: […] poly-(Glu:Tyr) […], MgCl2, Hepes pH […]
From the text: ADP-Glo luminescent kinase assay, Michaelis-Menten fit on EphB1

[4] = substrate: Nc1ncnc2c1ncn2[C@@H]1O[C@H](COP(=O)(O)OP(=O)(O)OP(=O)(O)O)[C@@H](O)[C@H]1O; experiment: as above; assay type: biochemical, Homo sapiens; conditions: […] poly-(Glu:Tyr) […], MgCl2, Hepes pH […]; remark: listed apart in the source
From the text: ADP-Glo luminescent kinase assay, Michaelis-Menten fit on EphB3

[5] = substrate: Nc1ncnc2c1ncn2[C@@H]1O[C@H](COP(=O)(O)OP(=O)(O)OP(=O)(O)O)[C@@H](O)[C@H]1O; experiment: as above; assay type: biochemical, Homo sapiens; conditions: […] poly-(Glu:Tyr) […], MgCl2, Hepes pH […]; remark: listed apart in the source
From the text: ADP-Glo luminescent kinase assay, Michaelis-Menten fit on EphB4

EphB2 / IC50 (EphB2 [1]): 7 nM | EphB1 / IC50 (EphB1): 0.01 µM
Molecule: Cc1nc(Nc2ncc(C(=O)Nc3c(C)cccc3Cl)s2)cc(N2CCN(CCO)CC2)n1 [Dasatinib]

Km (EphB2 [2]): 751 ± 80 µM
Molecule: Nc1ncnc2c1ncn2[C@@H]1O[C@H](COP(=O)(O)OP(=O)(O)OP(=O)(O)O)[C@@H](O)[C@H]1O [ATP]

B1: EphB1 (Homo sapiens) (protein)
chain: T2 sequence (P54762 602-896)
notes: kinase domain 602-896 without juxtamembrane region; N-terminal His6-TEV tag cleaved (GSS left); E. coli BL21 Star (DE3), PTP1B co-expressed; unphosphorylated; synthetic codon-optimized gene
Km [3]: 555 ± 36 µM | kcat [3]: 0.80 ± 0.02 s⁻¹

B2: EphB3 (Homo sapiens) (protein)
chain: DPNEAVREFAKEIDVSCVKIEEVIGAGEFGEVCRGRLKQPGRREVFVAIKTLKVGYTERQRRDFLSEASIMGQFDHPNIIRLEGVVTKSRPVMILTEFMENCALDSFLRLNDGQFTVIQLVGMLRGIAAGMKYLSEMNYVHRDLAARNILVNSNLVCKVSDFGLSRFLEDDPSDPTYTSSLGGKIPIRWTAPEAIAYRKFTSASDVWSYGIVMWEVMSYGERPYWDMSNQDVINAVEQDYRLPPPMDCPTALHQLMLDCWVRDRNLRPKFSQIVNTLDKLIRNAASLKVIASAQS
notes: kinase domain 616-910 without juxtamembrane region; N-terminal His6-TEV tag cleaved (GSS left); E. coli BL21 Star (DE3), PTP1B co-expressed; unphosphorylated; synthetic codon-optimized gene
Km [4]: 506 ± 48 µM | kcat [4]: 0.43 ± 0.01 s⁻¹

B3: EphB3 (Homo sapiens; C717G) (protein)
chain: B2 chain with C102G
notes: as for B2
Km [4]: 659 ± 67 µM | kcat [4]: 0.86 ± 0.03 s⁻¹

B4: EphB4 (Homo sapiens) (protein)
chain: DPNEAVREFAKEIDVSYVKIEEVIGAGEFGEVCRGRLKAPGKKESCVAIKTLKGGYTERQRREFLSEASIMGQFEHPNIIRLEGVVTNSMPVMILTEFMENGALDSFLRLNDGQFTVIQLVGMLRGIASGMRYLAEMSYVHRDLAARNILVNSNLVCKVSDFGLSRFLEENSSDPTYTSSLGGKIPIRWTAPEAIAFRKFTSASDAWSYGIVMWEVMSFGERPYWDMSNQDVINAIEQDYRLPPPPDCPTSLHQLMLDCWQKDRNARPRFPQVVSALDKMIRNPASLKIVARENG
notes: kinase domain 598-892 without juxtamembrane region; N-terminal His6-TEV tag cleaved (GSS left); E. coli BL21 Star (DE3), PTP1B and GroES/GroEL co-expressed; unphosphorylated; synthetic codon-optimized gene
Km [5]: 497 ± 39 µM | kcat [5]: 0.51 ± 0.01 s⁻¹
